Reference: patent publication US20250197503A1, “ANTI-HUMAN PD-Ll AND TLR7 DOUBLE-TARGETING NANOBODY CONJUGATE DRUG AND USE THEREOF IN RESISTING TUMOR” (SHANGHAI INSTITUTE OF MATERIA MEDICA , CHINESE ACADEMY OF …, priority 2022, published 2025)
Positions count from the first letter of the chain named.

Columns and labels:
PD-L1 [1] = biological target: T1, PD-L1 (Homo sapiens, UniProt Q9NZQ7); assay: Binding of candidate nanobodies to human PD-L1 on HEK293T/hPD-L1 cells, flow cytometry; parameters: expressed in transfected cells; host or cells: HEK293T; conditions: nanobody 10 μg/ml, FIG. 1
T1 sequence (Q9NZQ7 19-290): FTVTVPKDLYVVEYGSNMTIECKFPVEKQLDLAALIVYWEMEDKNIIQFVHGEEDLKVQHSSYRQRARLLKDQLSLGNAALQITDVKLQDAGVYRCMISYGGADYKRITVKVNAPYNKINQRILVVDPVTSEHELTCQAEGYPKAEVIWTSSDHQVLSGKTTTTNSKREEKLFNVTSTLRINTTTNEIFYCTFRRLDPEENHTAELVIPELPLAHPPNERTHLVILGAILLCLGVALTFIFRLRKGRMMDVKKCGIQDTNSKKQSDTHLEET
Description: The stably transfected cell line HEK293T/hPD-L1 was digested and centrifuged, and the supernatant was removed. The cells were washed once with PBS and the cell density was adjusted to 2.5×10^6 cells/mL. 100 μL of cell suspension was added to each cell sample, i.e., 2.5×10^5 cells/sample. Different anti-human PD-L1 candidate nanobodies (at a concentration of 10 μg/ml) were added into the samples. The samples were incubated in a 4° C. refrigerator for 20 min and then centrifuged to remove the supernatant, and washed once with PBS. The diluted antibody anti-human IgG Fc (FITC) was used as a secondary antibody to resuspend the above cells. The abtained samples were incubated in a 4° C. refrigerator for 20 min and centrifuged to remove the supernatant. The cells were washed twice with PBS, transferred to a flow tube; and detected on a flow cytometer to obtain the binding activity of the candidate nanobody with human PD-L1, as shown in FIG. 1.

CT26/hPD-L1 tumor = assay: In vivo anti-tumor activity in CT26/hPD-L1 tumor model; parameters: species or system BALB/c mice with dual humanization of PD-1/PD-L1; conditions: 10 mg/kg intraperitoneal, 6 administrations D0-D16, tumors dissected on Day 17
Description: To further evaluate the in vivo anti-tumor activity of anti-human PD-L1 and TLR7 dual-targeting nanobody conjugates, the CT26/hPD-L1 tumor model established by using BALB/c mice with dual humanization of PD-1/PD-L1 targets was used. When the average tumor volume reached 80-100 mm^3, the mice were randomly divided into 6 groups according to the tumor volume, with 6 mice in each group; the day of grouping was defined as DO, and the drugs were administered on DO, D3, D7, D10, D13, and D16, for a total of 6 times, with a dose of 10 mg/kg by intraperitoneal administration. The tumor size was measured 2-3 times a week, and the tumor growth curve was plotted.

human PD-1/PD-L1 [2] = biological target: T2, human PD-1/PD-L1 (Homo sapiens, UniProt Q9NZQ7); assay: Blocking of human PD-1/PD-L1 binding on HEK293T/hPD-L1 cells, single concentration, flow cytometry; conditions: nanobody 10 μg/ml, human PD-1-his 1 μg/mL, FIG. 2
T2 construct: expressed in transfected cells; host or cells: HEK293T
T2 sequence (Q9NZQ7 19-290): as above
Description: The stably transfected cell line HEK293T/hPD-L1 was digested and centrifuged to remove the supernatant. The cells were washed once with PBS and the cell density was adjusted to 2.5×10^6 cells/mL. 100 μL of cell suspension was added to each cell sample, i.e., 2.5×10^5 cells/sample. The human PD-1-his protein (at a concentration of 1 μg/mL) and candidate anti-human PD-L1 nanobodies (at a concentration of 10 μg/ml) were added to the samples respectively. The abtained samples were incubated in a refrigerator at 4° C. for 20 min and centrifuged to remove the supernatant. The obtained samples were washed once with PBS. The diluted antibody anti-his-APC was used as the secondary antibody to resuspend the above cells. The cells were incubated in a refrigerator at 4° C. for 20 min and centrifuged to remove the supernatant. The cells were washed twice with PBS, transferred to a flow tube; and detected by flow cytometry.

human PD-1/PD-L1 [3] = biological target: T2, human PD-1/PD-L1; assay: IC50 of blocking human PD-1/PD-L1 binding on HEK293T/hPD-L1 cells, flow cytometry; conditions: FIG. 3; for IC50 activity in blocking human PD-1/PD-L1 binding, compared with KN035: human PD-1-his 1 μg/mL
Description: The cell samples were prepared by digesting the stably transfected cell line HEK293T/hPD-L1. Different concentrations of nanobodies h_Nb1 or h_Nb2 or positive control antibody KN035 (sequence from the IMGT database) and human PD-1-his protein (concentration of 1 μg/mL) were added to the samples. After incubation and centrifugation, anti-his-APC was used as the secondary antibody for incubation and staining; and then the flow cytometer was used for detection to obtain the IC50 value of the candidate nanobody in blocking the binding of human PD-1/PD-L1, as shown in FIG. 3.

PD-L1 [4] = biological target: T1, PD-L1; assay: Affinity of affinity-matured nanobodies to PD-L1 compared with the original antibodies; assay type: binding; conditions: relative to original antibody (h_Nb1 VHH or h_Nb2 VHH)
Source text: The full-length amino acid sequences of preferred nanobodies that specifically bind to human PD-L1 in the above examples (SEQ ID No. 1 and SEQ ID No. 5) were annotated with the CCG method for the antibody CDR and FR regions. Suitable FR and CDR region templates were selected by antibody homology modeling to construct and select the optimal nanobody three-dimensional protein structure. The crystal structure of human PD-L1 protein was obtained from the PDB protein database. A preferred candidate library of PD-L1 nanobody-PD-L1 protein complex structures was obtained by protein complex homology modeling and protein-protein molecular docking methods. Based on the PD-1/PD-L1 in vitro competitive binding characteristics of the preferred antibodies, a suitable docking angle was selected to determine the optimal docking conformation. The key interaction sites of the selected nanobody-PD-L1 protein complex structure were analyzed, with attention paid to Van Der Waals forces, hydrogen bonds, ionic bonds, hydrophobic interactions, etc. The pairs of action sites with low affinity energy values between the nanobodies and the action sites on PD-L1 were focused on as affinity maturation point mutation objects. […] Finally, the affinity maturation scheme of the CDR regions of the preferred antibodies was determined, and the sequences of the antibodies after affinity maturation were SEQ ID NO. […]

B1: h_Nb5: anti-human PD-L1 nanobody, VHH SEQ ID NO: 13 (protein)
VHH: DVQLQESGGGAVQSGESLRLSCAASGRDLMFYDVAWFRQAPGKEREGVSYIRSSGTLTKYADSVKGRFTISRDNDKNTVSLQMNSLNPEDTAKYYCAARLQSATSHSDLREDEFNSWGQGTQVTVSS
modifications: h_Nb5 VHH
PD-L1 [1]
  binding activity to human PD-L1: good binding activity

B2: KN035: positive control antibody (sequence from the IMGT database) (antibody, chains of the INN, looked up, V domains shown)
VH: QVQLVESGGGLVQPGGSLRLSCAASGKMSSRRCMAWFRQAPGKERERVAKLLTTSGSTYLADSVKGRFTISRDNSKNTVYLQMNSLRAEDTAVYYCAADSFEDPTCTLVTSSGAFQYWGQGTLVTVSS
CT26/hPD-L1 tumor
  tumor inhibition rate: 65.83%

B3: h_Nb1: anti-human PD-L1 nanobody, VHH SEQ ID NO: 1 (protein)
VHH: DVQLQESGGGLVQPGGSLRLSCAASGFTFSSYAMSWVRQAPGKGLEWVSDINSGGDNTDYADSVKGRFTISRDNAKNTLYLQMNSLKPEDTAVYYCARGPKLCFSSWGQGTQVTVSS
modifications: h_Nb1 VHH
Human PD-1/PD-L1 [2]
  activity in blocking human PD-1/PD-L1 binding: effectively block
Human PD-1/PD-L1 [3]
  IC50 activity in blocking human PD-1/PD-L1 binding, compared with KN035: comparable to those of the positive control antibody KN035
CT26/hPD-L1 tumor
  tumor inhibition rate: 81.17%
PD-L1 [1]
  binding activity to human PD-L1: good binding activity

B4: h_Nb2: anti-human PD-L1 nanobody, VHH SEQ ID NO: 5 (protein)
VHH: DVQLQESGGGLVQPGGSLRLSCAASGFTFGDRWMYWLRQAPGKGLEWVSSINPAGRSTYYADSVKGRFTISRDNAKNTLYLQMNSLKSEDTAVYYCTKDPGGYQKGQGTQVTVSS
modifications: h_Nb2 VHH
Human PD-1/PD-L1 [2]
  activity in blocking human PD-1/PD-L1 binding: effectively block
Human PD-1/PD-L1 [3]; PD-1/PD-L1 blocking
  in vitro activity compared with KN035: superior to that of KNO35
Human PD-1/PD-L1 [3]
  IC50 activity in blocking human PD-1/PD-L1 binding, compared with KN035: comparable to those of the positive control antibody KN035
CT26/hPD-L1 tumor
  tumor inhibition rate: 85.14%
PD-L1 [1]
  binding activity to human PD-L1: good binding activity

B5: h_Nb2_G101Y: affinity-matured VHH of h_Nb2, SEQ ID NO: 92 (protein)
VHH: B4 VHH with G102Y
modifications: h_Nb2_G101Y VHH
PD-L1 [4]
  Improved value of relative affinity: 8.4837

B6: h_Nb6: anti-human PD-L1 nanobody, VHH SEQ ID NO: 17 (protein)
VHH: DVQLQESGGGLAQPGGSLRLSCAASGFTFSSYAMSWARQAPGKGLEWVAGIYRGGSDTYYADSVKGRFTISRDNTKNTLYLQMNSLKPEDTALYYCIQGWGLGYANYDYWGQGTQVTVSS
modifications: h_Nb6 VHH
PD-L1 [1]
  binding activity to human PD-L1: good binding activity

B7: h_Nb12: anti-human PD-L1 nanobody, VHH SEQ ID NO: 24 (protein)
VHH: DVQLQESGGGLVQAGGSLRLSCAASGRTFSSRAMGWFRQAPGKEREFVAAISGSGRNTYYADSVKGRFTISRDNAKNSVNLQMNSLKPEDTAVYYCNAAGGGITIATMTQRTQYDYWGQGTQVTVSS
modifications: h_Nb12 VHH
PD-L1 [1]
  binding activity to human PD-L1: good binding activity

B8: h_Nb4: anti-human PD-L1 nanobody, VHH SEQ ID NO: 9 (protein)
VHH: DVQLQESGGGLVQAGGSLRLSCAAPSRMFSGYTMGWYRQAPGKQRELVAQIANGGFTDYIDSVKGRFSISRDTVLNMMYLQMNSLKPEDTAVYYCNLVLVNGIPTRNWGQGTQVTVSS
modifications: h_Nb4 VHH
PD-L1 [1]
  binding activity to human PD-L1: good binding activity

B9: h_Nb9: anti-human PD-L1 nanobody, VHH SEQ ID NO: 20 (protein)
VHH: DVQLQESGGGLVQPGGSLRLSCASSGSIFGLGVKGWYRQPPGNQREMVAQIISGGRISYADSVKGRFTISRDNAKNTVYLQMNSLKPEDTAVYYCNAWGPGQRNYWGRGTQVTVSS
modifications: h_Nb9 VHH
PD-L1 [1]
  binding activity to human PD-L1: good binding activity

B10: h_Nb13: anti-human PD-L1 nanobody, VHH SEQ ID NO: 28 (protein)
VHH: DVQLQESGGGLVQPGGSLRLSCAASGSIFSINAMGWYRQAPGKSRELVAAITSGGSTNYADSVKGRFTISRDTAKNTVYLLMNSLEPEDTAVYYCNVERRRPPHYLSEYDFDWGQGTQVTVSS
modifications: h_Nb13 VHH
PD-L1 [1]
  binding activity to human PD-L1: good binding activity

B11: h_Nb26: anti-human PD-L1 nanobody, VHH SEQ ID NO: 36 (protein)
VHH: B10 VHH with S25P, S30R, S44Q, K64Q, T73N, L81Q, E86K, L106Y, E108D
modifications: h_Nb26 VHH
PD-L1 [1]
  binding activity to human PD-L1: good binding activity
